Measured values reported in PMC4942345 (Organic & biomolecular chemistry, 2016).
Primed or numbered codes have the meaning given here. Where no end group is shown, it is not given here. [ ]: non-standard residue; d: D form. The star is where a group is joined. 4‑CBS″ = 4-carboxybenzylsulfonamide on the N-terminus, O=C(O)c1ccc(CS(=O)(=O)*)cc1; 4‑CBS = 4-carboxybenzylsulfonamide, O=C(O)c1ccc(CS(=O)(=O)*)cc1

biological target: human carbonic anhydrase II (human, UniProt P00918 1-260); assay: SPR

Kd [µM]	Binder
0.082	{4‑CBS″}-[dD][dV][dD][dD][dY]-NH2 [4-CBS-dvddy]
0.082	{4‑CBS″}-[dD][dV][dE][dV][dL]-NH2 [4-CBS-dvevl]
0.063	{4‑CBS″}-[dD][dV][dD][dE][dY]-NH2 [4-CBS-dvdey]
0.022	{4‑CBS}-[dD][dL][dD][dD][dW] [4-CBS-dlddw]
0.059	{4‑CBS}-LKEYD [4-CBS-LKEYD]

Further lines, the binder ahead of its results:

Binder	Kd [µM]
{4‑CBS″}-[dD][dV][dD][dD][dL]-NH2 [4-CBS-dvddl]	0.156
{4‑CBS}-[dD][dV][dD][dV][dL] [4-CBS-dvdvl]	0.082
{4‑CBS″}-[dD][dA][dD][dV][dL]-NH2 [4-CBS-dadvl]	0.185
{4‑CBS″}-[dD][dL][dE][dE][dY]-NH2 [4-CBS-dleey]	0.088
{4‑CBS″}-[dD][dV][dE][dY][dE]-NH2 [4-CBS-dveye]	0.097

biological target: human carbonic anhydrase I (human, UniProt P00915 1-261); assay: SPR
Sequence (P00915 whole entry): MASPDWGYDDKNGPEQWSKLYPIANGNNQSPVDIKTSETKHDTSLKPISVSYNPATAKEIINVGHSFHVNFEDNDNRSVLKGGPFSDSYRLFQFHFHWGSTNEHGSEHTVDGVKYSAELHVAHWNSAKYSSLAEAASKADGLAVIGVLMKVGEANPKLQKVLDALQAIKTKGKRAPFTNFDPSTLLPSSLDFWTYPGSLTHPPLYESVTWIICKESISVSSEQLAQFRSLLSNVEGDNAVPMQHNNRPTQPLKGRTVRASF

Kd [µM]	Binder
0.102	{4‑CBS″}-[dD][dV][dD][dD][dY]-NH2 [4-CBS-dvddy]
0.151	{4‑CBS″}-[dD][dV][dE][dV][dL]-NH2 [4-CBS-dvevl]
0.055	{4‑CBS″}-[dD][dV][dD][dE][dY]-NH2 [4-CBS-dvdey]
0.025	{4‑CBS}-[dD][dL][dD][dD][dW] [4-CBS-dlddw]
0.081	{4‑CBS}-LKEYD [4-CBS-LKEYD]

Continued, binder first:

Binder	Kd [µM]
{4‑CBS″}-[dD][dV][dD][dD][dL]-NH2 [4-CBS-dvddl]	0.137
{4‑CBS}-[dD][dV][dD][dV][dL] [4-CBS-dvdvl]	0.083
{4‑CBS″}-[dD][dA][dD][dV][dL]-NH2 [4-CBS-dadvl]	0.13
{4‑CBS″}-[dD][dL][dE][dE][dY]-NH2 [4-CBS-dleey]	0.116
{4‑CBS″}-[dD][dV][dE][dY][dE]-NH2 [4-CBS-dveye]	0.121
